Reference: US6699656B2, “Treatment and prevention of HIV infection by administration of derivatives of human chorionic gonadotropin” (University of Maryland Biotechnology Institute, priority 1996, dated 2004)

What was measured:
[1] = test system: HIV-1; details: p24 antigen days 3 to 10; peptides 0.05 to 50 nmoles/ml, hCG 0.01 to 1,000 IU, native β-hCG 100 to 1,000 μg
Experimental: Sequences of the peptides are as follows:
HIV-1 infected cells were treated with the above preparations and the virus was measured.

[2] = test system: hematopoietic progenitor cells; assay: Hematopoietic progenitor colony assays (CFU-MIX, BFU-e, CFU-GM); type: cell-based; details: bone marrow and cord blood; hCG 200 IU/ml, peptides and subunits 100 μg/ml; 10 days
Description: Hematopoietic progenitor cells (2×10^5 cell/ml) were isolated from normal bone marrow and cord blood and seeded in methylcellulose. […] Aggregates containing more than 50 cells after 10 days of culture were counted as colonies.

[3] = test system: KS Y-1 or KS-SLK cells; assay: KS clonogenic assay; type: cell-based, human; details: 2 KS cell lines; peptides 50 nmoles/ml, CR127 2 nmoles/ml; 10 days
Experimental: Briefly, the KS Y-1 cells were obtained from mononuclear cells isolated from pleural effusion of an AIDS patient with KS involving the lungs. After the depletion of T lymphocytes, monocytes/macrophages and fibroblasts by the cytotoxicity method, using monoclonal antibodies against CD2, CD3, CD4, CD8, CD10 and CD14 membrane antigens and baby rabbit complement, the cells were cultured in the absence of exogenous growth factors to select for transformed cells.

[4] = test system: HIV-1; details: higher doses increased viral production; cited from earlier work
[5] = test system: Kaposi's Sarcoma; details: literature; cited from earlier work

Molecule	inhibition of HIV-1 infection/replication in acutely infected cells [1]	growth of hematopoietic progenitors (colonies) [2]	anti-KS effect in clonogenic assays (number of colonies) [3]	doses reducing HIV production in monocytes [4] [µg/mL]	efficacy in the treatment of Kaposi's Sarcoma [5]
partially purified native β-hCG (NβhCG): partially purified native β-hCG dissociated from hCG, Sigma (protein, UniProt P0DN86 21-165, looked up) Choriogonadotropin subunit …: SKEPLRPRCRPINATLAVEKEGCPVCITVNTTICAGYCPTMTRVLQGVLPALPQVVCNYRDVRFESIRLPGCPRGVNPVVSYAVALSCQCALCRRSTTDCGGPKDHPLTCDDPRFQDSSSSKAPPPSLPSPSRLPGPSDTPILPQ	active	directly promoted	–	–	–
recombinant β-hCG: purified recombinant β-chain of hCG (protein, UniProt P0DN86 21-165, looked up) Choriogonadotropin subunit …: SKEPLRPRCRPINATLAVEKEGCPVCITVNTTICAGYCPTMTRVLQGVLPALPQVVCNYRDVRFESIRLPGCPRGVNPVVSYAVALSCQCALCRRSTTDCGGPKDHPLTCDDPRFQDSSSSKAPPPSLPSPSRLPGPSDTPILPQ	not to be active	–	no anti-KS effect	–	–
β-hCG: β-subunit of hCG as reported in the literature (protein, UniProt P0DN86 21-165, looked up) Choriogonadotropin subunit …: SKEPLRPRCRPINATLAVEKEGCPVCITVNTTICAGYCPTMTRVLQGVLPALPQVVCNYRDVRFESIRLPGCPRGVNPVVSYAVALSCQCALCRRSTTDCGGPKDHPLTCDDPRFQDSSSSKAPPPSLPSPSRLPGPSDTPILPQ	–	–	–	≤ 10	efficacious
